{
  "source": "the supplement of paper PMC10567573",
  "parents": {"B1": {"name": "TNNI2 (parent)", "chain": "DWRKNIEEKSGMEGRKKMFESES"}},
  "data": [
    {"variants_of": "B1", "assay": "protein stability index of a GFP-peptide fusion (GPS, HEK-293T) (PSI 1-6); higher = more stable", "conditions": "c terminus: native", "values": [
      {"variant": "DWRKNCEEKSGMEGRKKMFESES", "protein stability index": 2.54},
      {"variant": "DWRKNNEEKSGMEGRKKMFESES", "protein stability index": 2.54},
      {"variant": "DWRKNSEEKSGMEGRKKMFESES", "protein stability index": 2.54},
      {"variant": "DWRKNPEEKSGMEGRKKMFESES", "protein stability index": 3.72},
      {"variant": "DWRKNHEEKSGMEGRKKMFESES", "protein stability index": 2.12},
      {"variant": "DWRKNREEKSGMEGRKKMFESES", "protein stability index": 2.09},
      {"variant": "DWRKNAEEKSGMEGRKKMFESES", "protein stability index": 2.59},
      {"variant": "DWRKNTEEKSGMEGRKKMFESES", "protein stability index": 3.26},
      {"variant": "DWRKNVEEKSGMEGRKKMFESES", "protein stability index": 2.09},
      {"variant": "DWRKNMEEKSGMEGRKKMFESES", "protein stability index": 2.52},
      {"variant": "DWRKNGEEKSGMEGRKKMFESES", "protein stability index": 2.41},
      {"variant": "DWRKNKEEKSGMEGRKKMFESES", "protein stability index": 2.23},
      {"variant": "DWRKNYEEKSGMEGRKKMFESES", "protein stability index": 1.88},
      {"variant": "DWRKNQEEKSGMEGRKKMFESES", "protein stability index": 3.26},
      {"variant": "DWRKNISEKSGMEGRKKMFESES", "protein stability index": 1.76},
      {"variant": "DWRKNILEKSGMEGRKKMFESES", "protein stability index": 2.17},
      {"variant": "DWRKNIMEKSGMEGRKKMFESES", "protein stability index": 2.25},
      {"variant": "DWRKNIKEKSGMEGRKKMFESES", "protein stability index": 2.62},
      {"variant": "DWRKNIIEKSGMEGRKKMFESES", "protein stability index": 1.75},
      {"variant": "DWRKNIREKSGMEGRKKMFESES", "protein stability index": 2.8},
      {"variant": "DWRKNIGEKSGMEGRKKMFESES", "protein stability index": 1.83},
      {"variant": "DWRKNIQEKSGMEGRKKMFESES", "protein stability index": 2.56},
      {"variant": "DWRKNIAEKSGMEGRKKMFESES", "protein stability index": 2.16},
      {"variant": "DWRKNITEKSGMEGRKKMFESES", "protein stability index": 2.82},
      {"variant": "DWRKNIHEKSGMEGRKKMFESES", "protein stability index": 1.84},
      {"variant": "DWRKNIFEKSGMEGRKKMFESES", "protein stability index": 1.77},
      {"variant": "DWRKNINEKSGMEGRKKMFESES", "protein stability index": 2.79},
      {"variant": "DWRKNIPEKSGMEGRKKMFESES", "protein stability index": 2.85},
      {"variant": "DWRKNICEKSGMEGRKKMFESES", "protein stability index": 2.01},
      {"variant": "DWRKNIDEKSGMEGRKKMFESES", "protein stability index": 3},
      {"variant": "DWRKNIWEKSGMEGRKKMFESES", "protein stability index": 2.01},
      {"variant": "DWRKNIYEKSGMEGRKKMFESES", "protein stability index": 2.12},
      {"variant": "DWRKNIVEKSGMEGRKKMFESES", "protein stability index": 2.26},
      {"variant": "DWRKNIEEKIGMEGRKKMFESES", "protein stability index": 2.89},
      {"variant": "DWRKNIEEKQGMEGRKKMFESES", "protein stability index": 2.97},
      {"variant": "DWRKNIEEKEGMEGRKKMFESES", "protein stability index": 2.28},
      {"variant": "DWRKNIEEKKGMEGRKKMFESES", "protein stability index": 2.18},
      {"variant": "DWRKNIEEKVGMEGRKKMFESES", "protein stability index": 1.02},
      {"variant": "DWRKNIEEKCGMEGRKKMFESES", "protein stability index": 1.81},
      {"variant": "DWRKNIEEKGGMEGRKKMFESES", "protein stability index": 2.42},
      {"variant": "DWRKNIEEKMGMEGRKKMFESES", "protein stability index": 2.16},
      {"variant": "DWRKNIEEKTGMEGRKKMFESES", "protein stability index": 2.47},
      {"variant": "DWRKNIEEKPGMEGRKKMFESES", "protein stability index": 2.52},
      {"variant": "DWRKNIEEKNGMEGRKKMFESES", "protein stability index": 2.54},
      {"variant": "DWRKNIEEKRGMEGRKKMFESES", "protein stability index": 2.55},
      {"variant": "DWRKNIEEKHGMEGRKKMFESES", "protein stability index": 2.29},
      {"variant": "DWRKNIEEKLGMEGRKKMFESES", "protein stability index": 1.58},
      {"variant": "DWRKNIEEKAGMEGRKKMFESES", "protein stability index": 1.7},
      {"variant": "DWRKNIEEKYGMEGRKKMFESES", "protein stability index": 2.82},
      {"variant": "DWRKLIEEKSGMEGRKKMFESES", "protein stability index": 2.57},
      {"variant": "DWRKAIEEKSGMEGRKKMFESES", "protein stability index": 3.79},
      {"variant": "DWRKSIEEKSGMEGRKKMFESES", "protein stability index": 2.31},
      {"variant": "DWRKPIEEKSGMEGRKKMFESES", "protein stability index": 3.97},
      {"variant": "DWRKEIEEKSGMEGRKKMFESES", "protein stability index": 2.28},
      {"variant": "DWRKMIEEKSGMEGRKKMFESES", "protein stability index": 2.37},
      {"variant": "DWRKCIEEKSGMEGRKKMFESES", "protein stability index": 2.7},
      {"variant": "DWRKYIEEKSGMEGRKKMFESES", "protein stability index": 1.62},
      {"variant": "DWRKGIEEKSGMEGRKKMFESES", "protein stability index": 2.5},
      {"variant": "DWRKWIEEKSGMEGRKKMFESES", "protein stability index": 1.64},
      {"variant": "DWRKRIEEKSGMEGRKKMFESES", "protein stability index": 2.95},
      {"variant": "DWRKFIEEKSGMEGRKKMFESES", "protein stability index": 2.43},
      {"variant": "DWRKIIEEKSGMEGRKKMFESES", "protein stability index": 2.32},
      {"variant": "DWRKVIEEKSGMEGRKKMFESES", "protein stability index": 2.04},
      {"variant": "DWRKHIEEKSGMEGRKKMFESES", "protein stability index": 2.07},
      {"variant": "DWRKDIEEKSGMEGRKKMFESES", "protein stability index": 1.94},
      {"variant": "DWRKTIEEKSGMEGRKKMFESES", "protein stability index": 3.41},
      {"variant": "DWRKQIEEKSGMEGRKKMFESES", "protein stability index": 2.72},
      {"variant": "DLRKNIEEKSGMEGRKKMFESES", "protein stability index": 2.85},
      {"variant": "DMRKNIEEKSGMEGRKKMFESES", "protein stability index": 3.08},
      {"variant": "DIRKNIEEKSGMEGRKKMFESES", "protein stability index": 2.53},
      {"variant": "DQRKNIEEKSGMEGRKKMFESES", "protein stability index": 3.67},
      {"variant": "DSRKNIEEKSGMEGRKKMFESES", "protein stability index": 2.69},
      {"variant": "DCRKNIEEKSGMEGRKKMFESES", "protein stability index": 2.88},
      {"variant": "DGRKNIEEKSGMEGRKKMFESES", "protein stability index": 2.51},
      {"variant": "DYRKNIEEKSGMEGRKKMFESES", "protein stability index": 2.93},
      {"variant": "DNRKNIEEKSGMEGRKKMFESES", "protein stability index": 2.25},
      {"variant": "DHRKNIEEKSGMEGRKKMFESES", "protein stability index": 2.95},
      {"variant": "DERKNIEEKSGMEGRKKMFESES", "protein stability index": 3.25},
      {"variant": "DVRKNIEEKSGMEGRKKMFESES", "protein stability index": 2.96},
      {"variant": "DDRKNIEEKSGMEGRKKMFESES", "protein stability index": 3.12},
      {"variant": "DTRKNIEEKSGMEGRKKMFESES", "protein stability index": 2.32},
      {"variant": "DFRKNIEEKSGMEGRKKMFESES", "protein stability index": 2.55},
      {"variant": "DKRKNIEEKSGMEGRKKMFESES", "protein stability index": 1.95},
      {"variant": "DPRKNIEEKSGMEGRKKMFESES", "protein stability index": 3.59},
      {"variant": "DWRKNIECKSGMEGRKKMFESES", "protein stability index": 1.63},
      {"variant": "DWRKNIEVKSGMEGRKKMFESES", "protein stability index": 2.66},
      {"variant": "DWRKNIEKKSGMEGRKKMFESES", "protein stability index": 2.74},
      {"variant": "DWRKNIEFKSGMEGRKKMFESES", "protein stability index": 2.06},
      {"variant": "DWRKNIELKSGMEGRKKMFESES", "protein stability index": 2.47},
      {"variant": "DWRKNIETKSGMEGRKKMFESES", "protein stability index": 2.17},
      {"variant": "DWRKNIEYKSGMEGRKKMFESES", "protein stability index": 2.16},
      {"variant": "DWRKNIEMKSGMEGRKKMFESES", "protein stability index": 1.5},
      {"variant": "DWRKNIEQKSGMEGRKKMFESES", "protein stability index": 2.17},
      {"variant": "DWRKNIESKSGMEGRKKMFESES", "protein stability index": 1.99},
      {"variant": "DWRKNIEWKSGMEGRKKMFESES", "protein stability index": 1.52},
      {"variant": "DWRKNIEHKSGMEGRKKMFESES", "protein stability index": 2.09},
      {"variant": "DWRKNIEIKSGMEGRKKMFESES", "protein stability index": 2.41}
    ]}
  ]
}
